{"source": "the supplement of paper PMC12764529", "key": {"[1]": {"test": "folding stability dG unfold (combined trypsin and chymotrypsin); higher = more stable", "procedure,_shortened": "(§1)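 Digests were run with trypsin and chymotrypsin at 11 concentrations in threefold dilutions, plus a no-protease condition, on designed mini-proteins in a PA-tagged cDNA display construct. The mini-proteins were under 80 residues, had no cysteine, and were kept only when AlphaFold2 dimer inter-PAE was above 15. After sequencing, Bayesian fitting of the counts gave K50, from which unfolding free energy was derived against a sequence-predicted unfolded-state K50 and a shared folded-state K50, per protease or combined.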"}, "[2]": {"test": "folding stability dG unfold from chymotrypsin proteolysis; higher = more stable", "procedure,_shortened": "as §1"}, "[3]": {"test": "folding stability dG unfold from trypsin proteolysis; higher = more stable", "procedure,_shortened": "as §1"}}, "note": "± gives the half width of the 95% confidence interval.", "data": [{"sequence": "SMPLKVTVEVYEPGGNPLGSKTYEVEPGETLTFTFPRPVKGRVTITDPNADNPQTVTGDPATGTLTFPLVSA [r9_272_JUSTAS]", "values": [{"measurement": "folding stability dG unfold", "setting": "[1]", "value": "0.858 ± 0.069", "unit": "kcal/mol"}, {"measurement": "folding stability dG unfold", "setting": "[2]", "value": "0.909 ± 0.086", "unit": "kcal/mol"}, {"measurement": "folding stability dG unfold", "setting": "[3]", "value": "0.587 ± 0.056", "unit": "kcal/mol"}]}, {"sequence": "SAGGPPFKIKEINIQYNPDAGYVTMTFTFDDGATVEAMISPEEGRIPGKVEVPGKEIEHEFEIPVPPSAGGS [r8_363_TrROS]", "values": [{"measurement": "folding stability dG unfold", "setting": "[1]", "value": "1.38 ± 0.19", "unit": "kcal/mol"}, {"measurement": "folding stability dG unfold", "setting": "[2]", "value": "1.5 ± 0.099", "unit": "kcal/mol"}, {"measurement": "folding stability dG unfold", "setting": "[3]", "value": "1.4 ± 0.041", "unit": "kcal/mol"}]}, {"sequence": "SAGGSLDVKIEITPPDGSTRTLDIEVESEEEAIKIAEELQKELGEGNTLKVRITYPGPKSPVELELKSAGGS [r8_107_JUSTAS]", "values": [{"measurement": "folding stability dG unfold", "setting": "[1]", "value": "2.2 ± 0.065", "unit": "kcal/mol"}, {"measurement": "folding stability dG unfold", "setting": "[2]", "value": "2.51 ± 0.046", "unit": "kcal/mol"}, {"measurement": "folding stability dG unfold", "setting": "[3]", "value": "1.53 ± 0.04", "unit": "kcal/mol"}]}, {"sequence": "SAGGSAGGSAGGETVTIVDKKTNKTITYNKETNEFTITTKNGKKKTIKVDSPEEALKALSAGGSAGGSAGGS [r10_849_TrROS_Hall]", "values": [{"measurement": "folding stability dG unfold", "setting": "[1]", "value": "0.89 ± 0.12", "unit": "kcal/mol"}, {"measurement": "folding stability dG unfold", "setting": "[2]", "value": "0.731 ± 0.1", "unit": "kcal/mol"}, {"measurement": "folding stability dG unfold", "setting": "[3]", "value": "0.964 ± 0.02", "unit": "kcal/mol"}]}, {"sequence": "SAGGSAGGSAWIPAKEIAKEIKAEYPPGKEREFRFPEEGWWIRIQVNKEGKPKVKVVPPEDISAGGSAGGSA [r18_61_TrROS]", "values": [{"measurement": "folding stability dG unfold", "setting": "[1]", "value": "0.109 ± 0.16", "unit": "kcal/mol"}, {"measurement": "folding stability dG unfold", "setting": "[2]", "value": "0.18 ± 0.17", "unit": "kcal/mol"}, {"measurement": "folding stability dG unfold", "setting": "[3]", "value": "0.103 ± 0.19", "unit": "kcal/mol"}]}, {"sequence": "SAGGSAGGSAMKRVTLTFPSTGKTLTFDFTTEEDIEAAIKAALGPEVDPAKVTVTVLPPGAASAGGSAGGSA [r18_350_JUSTAS]", "values": [{"measurement": "folding stability dG unfold", "setting": "[1]", "value": "2.12 ± 0.3", "unit": "kcal/mol"}, {"measurement": "folding stability dG unfold", "setting": "[2]", "value": "2.62 ± 0.054", "unit": "kcal/mol"}, {"measurement": "folding stability dG unfold", "setting": "[3]", "value": "1.04 ± 0.054", "unit": "kcal/mol"}]}, {"sequence": "SAGGSAGGSAGGMPVTFTGENQPVEVLSVDPERPVVVVYYPPTGTLLVALPPTGKVFPVSAGGSAGGSAGGS [r10_440_TrMRF]", "values": [{"measurement": "folding stability dG unfold", "setting": "[1]", "value": "0.18 ± 0.14", "unit": "kcal/mol"}, {"measurement": "folding stability dG unfold", "setting": "[2]", "value": "0.492 ± 0.15", "unit": "kcal/mol"}, {"measurement": "folding stability dG unfold", "setting": "[3]", "value": "-0.867 ± 0.54", "unit": "kcal/mol"}]}, {"sequence": "SAGGSAGGKKLYIVKIKIKNENGEEIEITLVFETEEQLKEALESLPIKNVKIEDVEIIPLEELKSAGGSAGG [r6_296_TrROS_Hall]", "values": [{"measurement": "folding stability dG unfold", "setting": "[1]", "value": "3 ± 0.063", "unit": "kcal/mol"}, {"measurement": "folding stability dG unfold", "setting": "[2]", "value": "3.39 ± 0.098", "unit": "kcal/mol"}, {"measurement": "folding stability dG unfold", "setting": "[3]", "value": "1.88 ± 0.051", "unit": "kcal/mol"}]}, {"sequence": "SAGGSAGGPETIPLRFGEEEVLLVLSPEDPDRFLAYFPAEGRVYLYRLLPEGLEFLREVPAEELSAGGSAGG [r6_915_TrMRF]", "values": [{"measurement": "folding stability dG unfold", "setting": "[1]", "value": "2.07 ± 0.1", "unit": "kcal/mol"}, {"measurement": "folding stability dG unfold", "setting": "[2]", "value": "2.03 ± 0.13", "unit": "kcal/mol"}, {"measurement": "folding stability dG unfold", "setting": "[3]", "value": "2.1 ± 0.066", "unit": "kcal/mol"}]}, {"sequence": "SAGGMPPVVTEHTVELNPPASATLEDVRAAAEEVAAAIRAAAPEAGVAEVTFTVDPSRGTVTITVTRPSAGG [r13_1011_JUSTAS]", "values": [{"measurement": "folding stability dG unfold", "setting": "[1]", "value": "0.442 ± 0.043", "unit": "kcal/mol"}, {"measurement": "folding stability dG unfold", "setting": "[2]", "value": "-0.925 ± 0.15", "unit": "kcal/mol"}, {"measurement": "folding stability dG unfold", "setting": "[3]", "value": "0.985 ± 0.018", "unit": "kcal/mol"}]}, {"sequence": "SAGMTIVIEIPSSTSYEDAVKAIKKIAKEIKEKGKKFKIVVLTKDPKIAEAIKKALEELGIPLEVKIGSAGG [r19_268_TrMRF]", "values": [{"measurement": "folding stability dG unfold", "setting": "[1]", "value": "2.93 ± 0.059", "unit": "kcal/mol"}, {"measurement": "folding stability dG unfold", "setting": "[2]", "value": "2.91 ± 0.043", "unit": "kcal/mol"}, {"measurement": "folding stability dG unfold", "setting": "[3]", "value": "2.77 ± 0.07", "unit": "kcal/mol"}]}, {"sequence": "SAGGMSTTKTVTSGGSTVTITTEPLPDGTTLSTVTVKSGGSPVTTITIPTSQLGEVAAAGGFAPADLLSAGG [r13_108_JUSTAS]", "values": [{"measurement": "folding stability dG unfold", "setting": "[1]", "value": "0.15 ± 0.065", "unit": "kcal/mol"}, {"measurement": "folding stability dG unfold", "setting": "[2]", "value": "0.172 ± 0.055", "unit": "kcal/mol"}, {"measurement": "folding stability dG unfold", "setting": "[3]", "value": "0.0387 ± 0.054", "unit": "kcal/mol"}]}, {"sequence": "SAGGSAGGSKVDIVKVEVYEVESPLGGRYYLVKVYRKDGRPILVLASPSTTPEEVLKKAEEAESAGGSAGGS [r12_1047_TrMRF]", "values": [{"measurement": "folding stability dG unfold", "setting": "[1]", "value": "2.48 ± 0.12", "unit": "kcal/mol"}, {"measurement": "folding stability dG unfold", "setting": "[2]", "value": "2.78 ± 0.053", "unit": "kcal/mol"}, {"measurement": "folding stability dG unfold", "setting": "[3]", "value": "1.96 ± 0.049", "unit": "kcal/mol"}]}, {"sequence": "SAGGIKIPPGQEIEMPFKVRVGGEPYPFRIEIKILKVNPDNGHFLIKMEIEDPENGQPIAEFTFFIPPSAGG [r13_582_TrROS]", "values": [{"measurement": "folding stability dG unfold", "setting": "[1]", "value": "3.35 ± 0.39", "unit": "kcal/mol"}, {"measurement": "folding stability dG unfold", "setting": "[2]", "value": "4.4 ± 0.23", "unit": "kcal/mol"}, {"measurement": "folding stability dG unfold", "setting": "[3]", "value": "2.64 ± 0.25", "unit": "kcal/mol"}]}, {"sequence": "SAGGSAGGSAEIVPVDGKLYVRIEVDGKTYVFEFDSVEELKNATFTLPNGKKVKVEIVPKEDLSAGGSAGGS [r12_730_TrROS_Hall]", "values": [{"measurement": "folding stability dG unfold", "setting": "[1]", "value": "3.12 ± 0.059", "unit": "kcal/mol"}, {"measurement": "folding stability dG unfold", "setting": "[2]", "value": "3.433 ± 0.029", "unit": "kcal/mol"}, {"measurement": "folding stability dG unfold", "setting": "[3]", "value": "2.26 ± 0.067", "unit": "kcal/mol"}]}, {"sequence": "SALVPIKGKYPVYEMRPEKDPNGNMKPEMRPVKVPIEFPFVVIDPENGKWVPADDIDPEDGRLVAPGLISAG [r14_122_TrROS]", "values": [{"measurement": "folding stability dG unfold", "setting": "[1]", "value": "0.598 ± 0.064", "unit": "kcal/mol"}, {"measurement": "folding stability dG unfold", "setting": "[2]", "value": "-0.25 ± 0.045", "unit": "kcal/mol"}, {"measurement": "folding stability dG unfold", "setting": "[3]", "value": "1.14 ± 0.051", "unit": "kcal/mol"}]}, {"sequence": "SPLKPGDVYTEPGGPLLRVEKVTLSEDPNKFPKKLEIELVPIPPPTPTLEEYTLPNGERRTLVLFEFDGPSA [r9_914_JUSTAS]", "values": [{"measurement": "folding stability dG unfold", "setting": "[1]", "value": "-0.217 ± 0.42", "unit": "kcal/mol"}, {"measurement": "folding stability dG unfold", "setting": "[2]", "value": "-1.17e-05 ± 0.5", "unit": "kcal/mol"}, {"measurement": "folding stability dG unfold", "setting": "[3]", "value": "-0.308 ± 0.31", "unit": "kcal/mol"}]}, {"sequence": "SAGKKIEIDMSLEELKKLPGIKKVEVKNGKVYLEVDGKKIEITIRPPKPVLEFKEGMSEEEKKELLKKLSAG [r5_2_TrROS_Hall]", "values": [{"measurement": "folding stability dG unfold", "setting": "[1]", "value": "1.22 ± 0.21", "unit": "kcal/mol"}, {"measurement": "folding stability dG unfold", "setting": "[2]", "value": "1.11 ± 0.1", "unit": "kcal/mol"}, {"measurement": "folding stability dG unfold", "setting": "[3]", "value": "0.911 ± 0.093", "unit": "kcal/mol"}]}, {"sequence": "SSPKIVVEVTLDGNPRTITIPSSLSLEEIKEKILEALKEEGIEDVPIEEIKIKKEEELPTEEGESKIVVSSA [r9_1053_JUSTAS]", "values": [{"measurement": "folding stability dG unfold", "setting": "[1]", "value": "1.76 ± 0.15", "unit": "kcal/mol"}, {"measurement": "folding stability dG unfold", "setting": "[2]", "value": "2.08 ± 0.087", "unit": "kcal/mol"}, {"measurement": "folding stability dG unfold", "setting": "[3]", "value": "0.999 ± 0.066", "unit": "kcal/mol"}]}, {"sequence": "SAGGMKKIKIVVKVPPNVTAEELAKALEDELKKKGYEVKVTVKVVKKPDGSLYVVIEVEIRPKNEKPSAGGS [r16_128_TrROS_Hall]", "values": [{"measurement": "folding stability dG unfold", "setting": "[1]", "value": "3.52 ± 0.099", "unit": "kcal/mol"}, {"measurement": "folding stability dG unfold", "setting": "[2]", "value": "3.67 ± 0.075", "unit": "kcal/mol"}, {"measurement": "folding stability dG unfold", "setting": "[3]", "value": "3.04 ± 0.13", "unit": "kcal/mol"}]}, {"sequence": "SAGGSAGGSAGGSGQEIPFMLIIKDPDGELDYIIQIEMRRVPNGGVDIEITEIIPAKDISAGGSAGGSAGGS [r4_117_TrROS]", "values": [{"measurement": "folding stability dG unfold", "setting": "[1]", "value": "1.77 ± 0.1", "unit": "kcal/mol"}, {"measurement": "folding stability dG unfold", "setting": "[2]", "value": "1.76 ± 0.039", "unit": "kcal/mol"}, {"measurement": "folding stability dG unfold", "setting": "[3]", "value": "1.55 ± 0.1", "unit": "kcal/mol"}]}]}
